Assay results from PMC4643051.

B1: unnamed (parent)
chain 1: DSGCVVSWKNKELKCGSGIFITDNVHTWTEQYKFQPESPSKLASAIQKAHEEGICGIRSVTRLENLMWKQITPELNHILSENEVKLTIMTGDIKGIMQAGKRSLRPQPTELKYSWKTWGKAKMLSTESHNQTFLIDGPETAECPNTNRAWNSLEVEDYGFGVFTTNIWLKLKEKQDVFCDSKLMSAAIKDNRAVHADMGYWIESALNDTWKIEKASFIEVKNCHWPKSHTLWSNGVLESEMIIPKNLAGPVSQHNYRPGYHTQITGPWHLGKLEMDFDFCDGTTVVVTEDCGNRGPSLRTTTASGKLITEWCCRSCTLPPLRYRGEDGCWYGMEIRPLKEKEENLVNSLVTA
chain 2: FHLTTRNGEPHMIVSRQEKGKSLLFKTEDGVNMCTLMAMDLGELCEDTITYKCPLLRQNEPEDIDCWCNSTSTWVTYGTCTTMGEHRRQKRSVALVPHVGMGLETRTETWMSSEGAWKHVQRIETWILRHPGFTMMAAILAYTIGTTHFQRALIFILLTAVTPSMT

Variants of: B1
Conditions: with partner chain of the complex shown;; read off a plot
With chain 1 S114A the ratio to parent was 0.27 fold of WT. In the case of chain 1 T117A, the ratio to parent is reported as 1.5 fold of WT. For chain 1 W115A, the ratio to parent was 0.45 fold of WT. With chain 1 T301A the ratio to parent was 1.7 fold of WT. For chain 1 D180A, the ratio to parent was 1.5 fold of WT.
